Test [1] concerns the target GST-tagged lamprey γ-synuclein NTD (lamprey). In words: pull-down; 50-100 μg GST-tagged protein as bait, 1-5 mg rat brain extract in HKET buffer (25 mM HEPES K+, 150 mM KCl, 1 mM EDTA, 1% Triton X-100, pH 7.4); bound proteins detected by Western blot, band intensity in AU.
The target is the same in test [2]. Kind of test: pull-down; direct binding: 50-100 μg GST-tagged protein as bait, 100 μg purified recombinant bovine Hsc70 or truncation, without nucleotides; Western blot, band intensity in AU.
The target of test [3] is GST-tagged human α-synuclein NTD (a.a. 1-102) (human) (UniProt P37840). In words: pull-down; 50-100 μg GST-tagged protein as bait, 1-5 mg lamprey CNS (brain and spinal cord) extract in HKET buffer; bound Hsc70 detected by Western blot, band intensity in AU.
For test [4], the target named is GST-tagged human α-synuclein (full length, wild type) (human) (UniProt P37840). The test is described as above.

Our source for the band intensity (AU) values is article PMC7031854.

Turning to “Hsc70 from rat brain extracts (from UniProt P63018 1-646) (natural protein)”, in test [1], the band intensity (AU) is 153 AU.

Turning to “His-tagged recombinant bovine Hsc70 (from UniProt P19120 1-650) (natural protein)”, the band intensity (AU) in test [2] was 62.8 AU.

In the case of “endogenous Hsc70 from lamprey brain and spinal cord extracts (natural protein)”, the band intensity (AU) in test [3] was determined as 154 AU; in test [4], 106 AU.
